Experimental data: the nanobody polyreactivity screen of Harvey et al. (2022)

Assay: yeast display, Sf9 membrane polyspecificity reagent, FACS + sequencing; frameworks hold sequencing errors
Procedure, shortened: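 Nanobodies from a synthetic yeast display library (Saccharomyces cerevisiae BJ5465), induced 36–48 hours with galactose, were stained 1 hour at 4 °C with 10% biotinylated, detergent-solubilized Sf9 membrane reagent, enriched on streptavidin microbeads, then FACS-sorted. Anti-HA (expression) and streptavidin (reagent binding) fluorescence set low and high (top ~1%) gates. Polyreactivity labels come from the gate of origin. Genes were colony-PCR amplified, MiSeq 2 × 250 sequenced and filtered by CDR length.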

Row | Sequence | polyreactivity (PSR sort gate)
1 | QVQLVESGGGLVQAGGSLRLSCAASGFILGLNAMGWYRRAPGKEREFVADISWSGDSTYYADSVKGRFTISRDNAKNTVYLQMNSLKPEDTAVYFCAADRYYNWGYYYWGQGTQVTVSS | low polyreactivity
2 | QVQLVESGGGLVQAGGSLRLSCAASGFILGQYTMGWYRQAPGKERELVASINGSDGITYYADSVKGRFTISRDNAKNTVYLQMNSLKPEDTAVYYCARPPRHYTFWGRRFYYWGQGTQVTVSS | low polyreactivity
3 | QVQLVESGGGLVQAGGSLRLSCAASGFILGTNAMGWYRQAPGKERELVAAISYSGGSTNYADSVKGRFTISRDNAKNTVYLQMYSLKPEDTPVYYCNRDPRKYGKLDYWGQGTQVTVSS | low polyreactivity
4 | QVQLVESGGGLVQAGGSLRLSCAASGFILKPYAMGWYRQAPWKERELVAAITYSGSSTYYADSVKGRFTISRDNAKNTVYLQMNSLKPEDTAVYYCAARDWSHPRRLFYWGQGTQVTVSS | high polyreactivity
5 | QVQLVESGGGLVQAGGSLRLSCAASGFILNAYTMGWYRQAPGKERELVATITINGGSTYYADSVKGRFTISRDNAKNTVYLQMNSLKPEDTPVYYCNADYWYKYDYWGQGTQVTVSS | low polyreactivity
6 | QVQLVESGGGLVQAGGSLRLSCAASGFILQYNAMGWYRQAPGKERELVAAITRSGVSTYYADSVKGRFTISRDNAKNTVYLQMNSLKPEDTAVYYCAATGGDRYEAYYYWGQGTQVTVSS | low polyreactivity
7 | QVQLVESGGGLVQAGGSLRLSCAASGFILRYNAMGWYRQAPGKERELVAAISYTGDRTYYADSVKGRFTISRDNAKNTVYLQMNSLKPEDTAVYYCNAGKGQRALVRIGSKLMYYWGQGTQVTVSS | high polyreactivity
8 | QVQLVESGGGLVQAGGSLRLSCAASGFILSDNAMGWYRQAPGKEREFVAAITSSGGSTHYADSVKGRFTISRDNAKNTVYLQMNSLKPEDTAVYYCAVGRPYWYDVWSFVSHYDYWGQGTQVTVSS | low polyreactivity
9 | QVQLVESGGGLVQAGGSLRLSCAASGFILSDNAMGWYRQAPGKEREFVAAITSSGGSTHYADSVKGRFTISRDNAKNTVYLQMNSLKPEDTAVYYCNTYPYLWGQGTQVTVSS | low polyreactivity
10 | QVQLVESGGGLVQAGGSLRLSCAASGFILSDYAMGWYRQAPGKERELVAGINSGGSTYYADSVKGRFTISRDNAKNTVYLQMNSLIPEDTAVYYCAAGVDYWWLVHFLYYYWGQGTQVTVSS | high polyreactivity
11 | QVQLVESGGGLVQAGGSLRLSCAASGFILSVYAMGWYRQAPGTETELVAAISKRGGSTNYADSVKGRFTISRDNAKDTVYLQMNSLKPEDTAVYYCAKARAGFLYDHWGQGTQVTVSS | high polyreactivity
12 | QVQLVESGGGLVQAGGSLRLSCAASGFILTQYAMGWYREAPGKERELVASISSSGSTYYADSVKGRFTISRDNAKNTVYLQMNSLKPEDTGVYYCATPGPAVHGTRGEYDYWGQGTQVTVSS | high polyreactivity
13 | QVQLVESGGGLVQAGGSLRLSCAASGFILTSYAMGWYRKAPGKERELVAAISSRGGRTYYADSVKGRFTISRDNEKNTVYLQMNSLKPEDTAVYYCNAGVYVVGDFDYWGLGTQVTVSS | high polyreactivity
14 | QVQLVESGGGLVQAGGSLRLSCAASGFILYFKAMGWYRQAHGKERELVAAITSDGGSTYYADSLKGRFTISRDNAKNTVYLQMNSLKPEDTAVYYCAADASTWYTEEYWGQGTQVTVSS | low polyreactivity
15 | QVQLVESGGGLVQAGGSLRLSCAASGFISDVYAMGWYRQAPGKERELVAVITWRGSTYYADSVKGRFTISRDNAKNTVYLQMNSLKPEDTAVYYCAAESQGDWAFDYWGQGTQVTVSS | low polyreactivity
16 | QVQLVESGGGLVQAGGSLRLSCAASGFISGKYAMGWYRQAPGKERELVASIRSGGSTNYADSVKGRFTISRDNAKNTVYLQMNSLKPEDTAVYYCAKLRGSRGVIYDYWGQGTQVTVSS | high polyreactivity
17 | QVQLVESGGGLVQAGGSLRLSCAASGFISGVNTMGWYSQAPGKERELVAAISSGGRTHYADSVKGRFTISRDNAKNTVYLQMNSLKPEDTAVYYCATRVRSTTRYYYWGLGTQVTVSS | high polyreactivity
18 | QVQLVESGGGLVQAGGSLRLSCAASGFISRAYAMGWYRQAPGKERELVAAISVRVGSTYYADSVKGRFTISRDNAKNTVYLQMNSLKPEDTAVYYCAALRPWPRYDYWGQGTQVTVSS | high polyreactivity
19 | QVQLVESGGGLVQAGGSLRLSCAASGFISRYYGMGWYRQAPGKERELVAAISWSGGRTHYADSVKGRFTISRDNAKNTVYLQMNSLKPEDTAVYYCATDRYYRPGGEYDYWGQGTQVTVSS | high polyreactivity
20 | QVQLVESGGGLVQAGGSLRLSCAASGFISSHYAMGWYRPAPGKEWEVVATISSGGSTYADSVKGRFTISRDNAKNTVYLQMNSLKPEDTAVYYCAKRYYKSLNRDEFDSWGQGTQVTVSS | high polyreactivity
21 | QVQLVESGGGLVQAGGSLRLSCAASGFISVRNAMGWYRQAPGKEREFVAAISGGGGSTYYADSVKGRFTISRDNAKNTVYLQMNSLKPEDTAVYYCNAPRYLYSAGRFNYWGQGTQVTVSS | high polyreactivity
22 | QVQLVESGGGLVQAGGSLRLSCAASGFISYYYAMGWYRQAPGKERELVAAITKSGGSTYYADSVKGRFTIARDNAKNTVSLQMNSLKPEDTAVYYCAAVRSTRNSTSRLYGYWGQGTQVTVSS | low polyreactivity

Row | Sequence | polyreactivity (PSR sort gate)
23 | QVQLVESGGGLVQAGGSLRLSCAASGFIVDTYAMGWYRQAPGKERELVAVISSSGGRTYYADSVKGRFTISRDNAKNTVYFQMNSLKPEDTAVYYCAARWYSGYGRFDYWGQGTQVTVSS | high polyreactivity
24 | QVQLVESGGGLVQAGGSLRLSCAASGFIVSTKVMGWYRQAPGKERELVADINTGGSTSYADSVKGRFTNSRDNAKNTVYLQMNSLKPEDTAVYSCAAVLQYYYLSTDDPYDYWGQGTQVTVSS | low polyreactivity
25 | QVQLVESGGGLVQAGGSLRLSCAASGFIYGGNPRGWYRQAPGKERELVAANRSGGSTYYADSVKGRFTISRDNAKNTVYLQMNILKPEDTAVYYCAVRLRYAYRARGNYWGQGTQVTVSS | low polyreactivity
26 | QVQLVESGGGLVQAGGSLRLSCAASGFIYKFYAMGWYRQEPGKVRELVAAISDSGGSTYYADSVKGRFTISRDNAKNTVYLQMNSLKPEDTAVYYCNADWSWNNYYDFDYWGLGTQVTVSS | low polyreactivity
27 | QVQLVESGGGLVQAGGSLRLSCAASGFIYSNNAMGWYRQAPGKERELVAAISASGSSTYYADSVKGRFTISRDNAKNTVYLQMNSLKPEDTAVYYCAAKSRTYQSYYYWGQGTQVTVSS | high polyreactivity
28 | QVQLVESGGGLVQAGGSLRLSCAASGFIYSRYAMGWYRQAPRKEMDFFAAISRNGGSTYYADSVKGRITISRDNAKNTVYLQMNSLKPDDTAVYYCIAPYFVTSTYANTLGFDYWGQGTQVTVSS | high polyreactivity
29 | QVQLVESGGGLVQAGGSLRLSCAASGFMFSRYAMGWYRQAAGTERELVAAITSSGGRTYYADSVKGRFTISRDNAKNTVYLQMTSLKPEDTAVYYCNADLGSWYTWFDYWGQGTQVTVSS | high polyreactivity
30 | QVQLVESGGGLVQAGGSLRLSCAASGFNFPVNAMGWYRQAPGTERELVASITRSGGRTYYADSVKGRLTISRDNAKNTVYLQMNSLKPEDTAVYYCAARYLQEYVYEYDYWGQGTQVTVSS | high polyreactivity
31 | QVQLVESGGGLVQAGGSLRLSCAASGFNFRANGMGWYRQAPGKERELVATITSGGTTNYADSVKGRFTITRDNAKNTVYLQMNSLKPEDTAVYYCAKRFVQAYFRLYDYWGQGTQVNVSS | low polyreactivity
32 | QVQLVESGGGLVQAGGSLRLSCAASGFNFSYYAMGWYRQAPGKERELVAAINSGGVRTYYADSVKGRFTISRDNAKNTVYLQMNSLKPEDTAVYYCAARRHDSRYQYDYWGQGTQVTVSS | high polyreactivity
33 | QVQLVESGGGLVQAGGSLRLSCAASGFNFSYYVMGWSRQAPGKERELVAAITKSGGSTYYADSVKGRFTISRDNAKNTVYLQMNSLKPEDTAVYYCAAVRGYRGYDYWGQGTQVTVSS | high polyreactivity
34 | QVQLVESGGGLVQAGGSLRLSCAASGFNFTAYAMGWYRQAPGKERELVAAISSGGSTNYADSVKGRFTISRDNAKNSVYLQMNSLKPEDTAVYYCAALLRGIEYDYWGQGTQVTVSS | high polyreactivity
35 | QVQLVESGGGLVQAGGSLRLSCAASGFNFYLNAMGWYRQAPGKERELVAAISSSGGITYYADSVKGRFTISRDNAKNTVYLQMNSLKPEDTADYSCAAYWPKYRYEAERDYWGQGTQVTVSS | low polyreactivity
36 | QVQLVESGGGLVQAGGSLRLSCAASGFNYSQYAMGWYRQAPGKERELVAAITTTGGSTYYADSVKGRFTISRDNAKNTVYLQMNSLKPDDTAVYYCAARYVRTVRGGYWGQGTQVTVSS | high polyreactivity
37 | QVQLVESGGGLVQAGGSLRLSCAASGFSFDSYALGWYRKAPGKERELVAAISRSGGSTYYADSVKGRFTISRDNAKNTVYLQMNSLKPEDTAVYYCARDRDSWGGHDSWGQGTQVTVSS | high polyreactivity
38 | QVQLVESGGGLVQAGGSLRLSCAASGFSFFKYAMGWYRQAPGKERELVAAISSSGGSTYYADSVKGRFTISRDNAKKTVYLQMNSLKPEDTAVYYCAVDNLKCRAQSLDGFDYWGQGTQVTVSS | high polyreactivity
39 | QVQLVESGGGLVQAGGSLRLSCAASGFSFGIYAMGWYRQAPGKERELVADITASGGSTYYADSVKGRFTISRDNAKNTVYLQMNSLKPEDTAVYYCAADGWWHNFYPGTGLDYWGQGTQVTVSS | low polyreactivity
40 | QVQLVESGGGLVQAGGSLRLSCAASGFSFPYAMGGYRQAPGKERELVAGISWSGGSTYYADSVKGRFTISRDNAKNTVYLQMNSLKPEDTAVYNCNKYVQSGGTYDYWGQGTQVTVSS | low polyreactivity
41 | QVQLVESGGGLVQAGGSLRLSCAASGFSFQLYPMGWYRQAPWKERELVSAISQSGDSTYYADSVKGRFTISRDNAKNTVYLQMNSQKPEDNAVYYFNAVNDGVVWSYPFDFDYWGQGTQVTVSS | low polyreactivity
42 | QVQLVESGGGLVQAGGSLRLSCAASGFSFYNYAMGWYRQAPGKERELVAAISWSGGSTHYADSVKGRFTISRDNAKNTVYLQMNSLKPEDTAVYYCAKVGVLGYYTYYYWGQGTQVTVSS | low polyreactivity
43 | QVQLVESGGGLVQAGGSLRLSCAASGFTCKYYAMGWYRQAPGKERELVASINWSGGRTSYADSVKGRFTISRDNAKNTVYLQMNSLKREDTAVYYCARTPAGRGEYWGQGSQVTVSS | low polyreactivity
